Positions of bridges follow the written chain, without caps; N, C: chain ends. Non-standard residues stand in square brackets, D forms with d. No end group written: not given here. Pen = CC(C)(S)[C@H](N)C(=O)O; NMeA = CN[C@@H](C)C(=O)O; Sar = CNCC(=O)O
Experiments:
[1] = target: T1, soluble human FcRn (shFcRn) (human, UniProt P55899 24-297; P61769 21-119, biotinylated with Sulfo-NHS-LC-Biotin in the ELISA; amine-coupled to a CM5 chip in SPR); assay: SPR, pH 7.4
T1 construct: also called biotinylated shFcRn
Experimental: (§1) The following steps were performed to cross-link soluble human or cynomolgus FcRn to the dextran surface of a CM5 sensor chip (Biacore AB, Uppsala, Sweden) by an amine coupling reaction involving 1-ethyl-(3-dimethylaminopropyl)-carbodiimide hydrochloride (EDC) (Biacore AB, Uppsala, Sweden) and N-hydroxysuccinimide (NHS) (Biacore AB, Uppsala, Sweden) as recommended by Biacore (BIAapplications Handbook, version AB, section 4.2, Biacore AB, Uppsala, Sweden). The FcRn protein was diluted in 50 mM sodium acetate, pH 4.5 (Biacore AB, Uppsala, Sweden) to a concentration of 10 to 30 µg/ml and used to coat one flow cell on the sensor chip. Residual sites on the FcRn flow cell were blocked with 1 M ethanolamine hydrochloride pH 8.5 (Biacore AB, Uppsala, Sweden). A control flow cell was blocked with ethanolamine for reference subtraction. For analysis of the monomeric peptides, FcRn was coated to a final density of 4000-5000 response units (RU). For analysis of the peptide dimers, FcRn was coated to a density of 2000-2500 RU. All SPR measurements were performed using a BIACORE 3000 Instrument (Biacore AB Uppsala, Sweden). For measurements done at either pH 6 or pH 7.4, experiments were performed in 50 mM phosphate, 100 mM sodium chloride, 0.01% surfactant P20 (Biacore AB, Uppsala, Sweden).
(§2) A. Representative Procedure for the Determination of Binding Constant of Monomeric Peptides Ten 2-fold dilutions of the peptide were injected over the FcRn-CM5 chip at a rate of 20 µl/min for 2 min. The peptide was dissociated from the chip for 2.5 minutes with buffer. Any remaining peptide was removed from the chip with a 30 second injection of HBS-P buffer (Biacore AB, Uppsala, Sweden) at a rate of 30 µl/min. Sensorgrams were generated and analyzed using BiaEval software version 3.1 (Biacore AB, Uppsala, Sweden). The equilibrium RU observed for each injection was plotted against concentration. The equilibrium K_D values were derived by analysis of the plots using the steady state affinity model included in the BiaEval software.

[2] = target: T1, soluble human FcRn (shFcRn); assay: competition ELISA vs human IgG
Experimental: The wells were coated with 100 μl/well of 1 μg/ml biotinylated-shFcRn in Buffer A. The plate was sealed and incubated at 37° C. for 2 hours. Afterwards, the plate was washed with 200 μl/well of Buffer B (Buffer B: 100 mM MES pH 6, 150 mM NaCl, 0.5% BSA IgG-free (Jackson ImmunoResearch, West Grove, Pa.), 0.05% Tween-20). […] To allow for mixing, the plate was rocked for 2 minutes, sealed and incubated at 37° C. for 2 hours. […] The plate was covered, incubated for 30 minutes at room temperature and washed 4 times with 200 μl/well of ice-cold buffer B. SureBlue TMB substrate solution (100 μl/well, KPL, Gaithersburg, Md.) was added and the plate was allowed to incubate at room temperature until color developed, which took 5 to 10 minutes. Once color developed, 100 μl/well of TMB stop solution (KPL, Gaithersburg, Md.) was added and the absorbance was measured at 450 nm.

[3] = target: T1, soluble human FcRn (shFcRn); assay: SPR, pH 6
Experimental: as §1, §2

Row | Kd [1] [µM] | IC50 [2] [µM] | Kd [3] [µM] | Binder
1 | 137 | 48 | – | QRFCTGHFXGLYPCNGP (D-Ala9; disulfide; C-terminal amide) [Peptide No. 22]
2 | – | 1.6 | 0.086 | QRFXTGHFGGXYPCNGP (Pen4; NMeLeu11; disulfide; C-terminal amide) [Peptide No. 113]
3 | – | 39 | 18.3 | QRF[Pen]TGHF[dF]GPYPCNGP-NH2 (disulfide 4-14; N-terminus assumed; SMILES C[C@@H](O)[C@@H]1NC(=O)[C@@H](NC(=O)[C@H](Cc2ccccc2)NC(=O)[C@H](CCCNC(=N)N)NC(=O)[C@@H](N)CCC(N)=O)C(C)(C)SSC[C@@H](C(=O)N[C@@H](CC(N)=O)C(=O)NCC(=O)N2CCC[C@H]2C(N)=O)NC(=O)[C@@H]2CCCN2C(=O)[C@H](Cc2ccc(O)cc2)NC(=O)[C@@H]2CCCN2C(=O)CNC(=O)[C@@H](Cc2ccccc2)NC(=O)[C@H](Cc2ccccc2)NC(=O)[C@H](Cc2c[nH]cn2)NC(=O)CNC1=O) [Peptide No. 155]
4 | 0.28 | 2.1 | 0.059 | RFXTGHFGGXYPCNGP (Pen3; NMeLeu10; disulfide; C-terminal amide) [Peptide No. 146]
5 | – | > 125 | 88 | QRFXTXHFGGLYPCNGP (Pen4; Sar6; disulfide; C-terminal amide) [Peptide No. 108]
6 | – | 195 | 16 | QRFVTGHFGXLYPANGP (D-Pro10; unbridged; C-terminal amide) [Peptide No. 157]
7 | – | 49 | 4.2 | QRFVTGHFGXWYPINGP (D-Pro10; unbridged; C-terminal amide) [Peptide No. 190]
8 | – | 60 | 3.6 | RFVTGHFG[dP]WYPA-NH2 (N-terminus assumed; SMILES CC(C)[C@H](NC(=O)[C@H](Cc1ccccc1)NC(=O)[C@@H](N)CCCNC(=N)N)C(=O)N[C@H](C(=O)NCC(=O)N[C@@H](Cc1c[nH]cn1)C(=O)N[C@@H](Cc1ccccc1)C(=O)NCC(=O)N1CCC[C@@H]1C(=O)N[C@@H](Cc1c[nH]c2ccccc12)C(=O)N[C@@H](Cc1ccc(O)cc1)C(=O)N1CCC[C@H]1C(=O)N[C@@H](C)C(N)=O)[C@@H](C)O) [Peptide No. 246]
9 | – | 3.2 | 0.23 | QRFXTGHFXGXYPCNGP (Pen4; D-Ala9; NMeLeu11; disulfide; C-terminal amide) [Peptide No. 154]
10 | 8.8 | 8.1 | 0.83 | QRF[Pen]TGHFG[dR]LYPCNGP-NH2 (disulfide 4-14; N-terminus assumed; SMILES CC(C)C[C@@H]1NC(=O)[C@@H](CCCNC(=N)N)NC(=O)CNC(=O)[C@H](Cc2ccccc2)NC(=O)[C@H](Cc2c[nH]cn2)NC(=O)CNC(=O)[C@H]([C@@H](C)O)NC(=O)[C@@H](NC(=O)[C@H](Cc2ccccc2)NC(=O)[C@H](CCCNC(=N)N)NC(=O)[C@@H](N)CCC(N)=O)C(C)(C)SSC[C@@H](C(=O)N[C@@H](CC(N)=O)C(=O)NCC(=O)N2CCC[C@H]2C(N)=O)NC(=O)[C@@H]2CCCN2C(=O)[C@H](Cc2ccc(O)cc2)NC1=O) [Peptide No. 41]
11 | 21 | 5 | 0.79 | QRFXTGHFXGLYPCNGP (Pen4; D-Pro9; disulfide; C-terminal amide) [Peptide No. 48]
12 | – | 3.6 | 0.41 | QRFXTGHFXGLYPCNGP (Pen4; D-His9; disulfide; C-terminal amide) [Peptide No. 50]
13 | – | 9.4 | 2.6 | QRFXTGHFXGLYPCNGP (Pen4; D-Ile9; disulfide; C-terminal amide) [Peptide No. 51]
14 | – | 21 | 3.3 | QRFXTGHFXXLYPCNGP (Pen4; D-Pro9; D-Pro10; disulfide; C-terminal amide) [Peptide No. 152]
15 | 4.9 | – | 0.58 | QRFXTGHFXGLYPCNGP (Pen4; D-Asp9; disulfide; C-terminal amide) [Peptide No. 47]
16 | – | 1.4 | 0.23 | QRFXTGHFGXLYPCNGP (Pen4; D-Pro10; disulfide; C-terminal amide) [Peptide No. 40]
17 | 20 | – | 2 | QRFXTGHFGXLYPCNGP (Pen4; D-His10; disulfide; C-terminal amide) [Peptide No. 42]
18 | 184 | – | – | QRFCTGHFGXLYPCNGP (D-Ala10; disulfide; C-terminal amide) [Peptide No. 23]
19 | – | 5.9 | 0.72 | QRFXTGHFXXLYPCNGP (Pen4; D-Phe9; D-Pro10; disulfide; C-terminal amide) [Peptide No. 150]
20 | 41 | 18 | 2.2 | QRFXTGHFGXLYPCNGP (Pen4; D-Ile10; disulfide; C-terminal amide) [Peptide No. 43]
21 | – | 5.5 | 1 | QRF[Pen][NMeA]GHFGGLYPCNGP-NH2 (disulfide 4-14; N-terminus assumed; SMILES CC(C)C[C@@H]1NC(=O)CNC(=O)CNC(=O)[C@H](Cc2ccccc2)NC(=O)[C@H](Cc2c[nH]cn2)NC(=O)CNC(=O)[C@H](C)N(C)C(=O)[C@@H](NC(=O)[C@H](Cc2ccccc2)NC(=O)[C@H](CCCNC(=N)N)NC(=O)[C@@H](N)CCC(N)=O)C(C)(C)SSC[C@@H](C(=O)N[C@@H](CC(N)=O)C(=O)NCC(=O)N2CCC[C@H]2C(N)=O)NC(=O)[C@@H]2CCCN2C(=O)[C@H](Cc2ccc(O)cc2)NC1=O) [Peptide No. 213]
22 | – | 1.3 | 0.24 | QRFXTGHFXGXYPCNGP (Pen4; D-Phe9; NMeLeu11; disulfide; C-terminal amide) [Peptide No. 153]
23 | – | 1 | 0.068 | QRFXTGHFGXWYPCNGP (Pen4; Sar10; disulfide; C-terminal amide) [Peptide No. 238]
24 | – | 0.62 | 0.044 | RFXTGHFXXYPC (Pen3; X8 = 3(R)-amino-2-oxo-1-azepine acetic acid; NMeLeu9; disulfide; C-terminal amide) [Peptide No. 239]
25 | – | 169 | 18 | QRFC[NMeA]GHFGGLYPCNGP-NH2 (disulfide 4-14; N-terminus assumed; SMILES CC(C)C[C@@H]1NC(=O)CNC(=O)CNC(=O)[C@H](Cc2ccccc2)NC(=O)[C@H](Cc2c[nH]cn2)NC(=O)CNC(=O)[C@H](C)N(C)C(=O)[C@@H](NC(=O)[C@H](Cc2ccccc2)NC(=O)[C@H](CCCNC(=N)N)NC(=O)[C@@H](N)CCC(N)=O)CSSC[C@@H](C(=O)N[C@@H](CC(N)=O)C(=O)NCC(=O)N2CCC[C@H]2C(N)=O)NC(=O)[C@@H]2CCCN2C(=O)[C@H](Cc2ccc(O)cc2)NC1=O) [Peptide No. 196]
26 | – | 2.8 | 0.51 | QRFXTGHFXGLYPCNGP (Pen4; D-Phe9; disulfide; C-terminal amide) [Peptide No. 52]
27 | 0.35 | 1 | 0.058 | RF[Pen]TGHFG[Sar]YPCNGP-NH2 (disulfide 3-12; N-terminus assumed; SMILES C[C@@H](O)[C@@H]1NC(=O)[C@@H](NC(=O)[C@H](Cc2ccccc2)NC(=O)[C@@H](N)CCCNC(=N)N)C(C)(C)SSC[C@@H](C(=O)N[C@@H](CC(N)=O)C(=O)NCC(=O)N2CCC[C@H]2C(N)=O)NC(=O)[C@@H]2CCCN2C(=O)[C@H](Cc2ccc(O)cc2)NC(=O)CN(C)C(=O)CNC(=O)[C@H](Cc2ccccc2)NC(=O)[C@H](Cc2c[nH]cn2)NC(=O)CNC1=O, printed RF-Pen-TGHFG-Sar-YPCNGP (no Leu after Sar)) [Peptide No. 147]

Source: patent US8906844B2 (SYNTONIX PHARMACEUTICALS, dated 2014)
